Laboratory results taken from US20260042834A1 (HBM ALPHA THERAPEUTICS, published 2026).

Tests used:
human UCN2 peptide = target: T1, human UCN2 peptide (human, UniProt Q96RP3 72-109, limits assumed, not fully specified; biotin at N- or C-terminus in the ELISA); test: ELISA, biotinylated hUCN2 on streptavidin plates
T1 construct: also called hUCN2; hUCN2 (NT Biotin)
T1 peptide (looked up): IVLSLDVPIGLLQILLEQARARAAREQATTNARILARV
In short: (§1)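 Streptavidin-coated plates (2 μg/mL, overnight 4° C.), blocked with 2% BSA/0.05% Tween-20 PBS pH 7.4, then loaded with 1 μg/mL N- or C-terminally biotinylated hUCN peptide, 1 hour at 37° C. Detection by TMB substrate, 15 minutes at room temperature, stopped, OD450 nm read.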

human UCN1 peptide = target: T2, human UCN1 peptide (human, UniProt P55089 83-122, not fully specified; biotin at N- or C-terminus in the ELISA); test: ELISA, biotinylated hUCN1 on streptavidin plates
T2 construct: also called hUCN1; hUCN1 (NT Biotin)
T2 peptide (looked up): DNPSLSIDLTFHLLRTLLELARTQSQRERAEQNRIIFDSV

human UCN3 peptide = target: T3, human UCN3 peptide (human, UniProt Q969E3 120-157, not fully specified; biotin at N- or C-terminus in the ELISA); test: ELISA, biotinylated hUCN3 on streptavidin plates
T3 construct: also called hUCN3; hUCN3 (NT Biotin)
T3 peptide (looked up): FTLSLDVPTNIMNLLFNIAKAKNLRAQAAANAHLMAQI
In short: as §1

binding result (human UCN2 peptide): no binding (tested: 100 nM)
binding result (human UCN1 peptide): no binding (tested: 100 nM)
binding result (human UCN3 peptide): no binding (tested: 100 nM)
B1: PR302334-26 (antibody, human IgG1, kappa, V domains shown)
VH: EVQLVESGGGLVQPGGSLRLSCAASGFTFSTYAMSWVRQAPGKGLEWVASIRSGGTTYYPDSVKGRFTISRDNSKNSLYLQMNSLRAEDTAVYYCTRGIDWGQGTTVTVSS
VL: DIVMTQSPDSLAVSLGERATINCKASQSVNNDVAWYQQKPGQPPRLLIYYASNRYTGVPDRFSGSGSGTDFTLTISSLQAEDLAVYFCQQDYSSWTFGGGTKVEIKR
notes: Humanized variant of PR302334
